Test results: publication PMC2733758 (The Journal of Cell Biology, 2009)

Molecular target: T1, GST∷CED-9(R211E, N212G) (C. elegans, UniProt P41958 1-280, R211E | N212G)
T1 sequence (looked up): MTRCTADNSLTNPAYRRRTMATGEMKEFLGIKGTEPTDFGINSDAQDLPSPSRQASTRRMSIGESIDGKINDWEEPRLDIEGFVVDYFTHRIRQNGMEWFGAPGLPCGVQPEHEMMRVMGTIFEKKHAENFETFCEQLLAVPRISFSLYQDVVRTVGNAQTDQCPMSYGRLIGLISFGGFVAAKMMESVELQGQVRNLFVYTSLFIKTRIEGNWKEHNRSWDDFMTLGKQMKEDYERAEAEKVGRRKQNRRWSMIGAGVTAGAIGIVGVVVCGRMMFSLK
Assay: pull-down

- fold lower affinity than wild-type CED-9: 3 fold
B1: in vitro-translated, [35S]methionine-labeled FZO-1 protein (natural protein, C. elegans, UniProt Q23424 1-774, looked up)
chain: MSGTASLVHTLPASGDSNHRGLHSLKNSRRAADNEPLLRFREAKKVLGDVYGELKDNVAELEGVYKDIKENDFVSSEQREEIEAIGDSIKTIMDTFQRDNMKVVFFGRTSNGKSTTINAMLHEKVLPQGMGHTTCCFLQVEGSEGEVGHLQLDDNPQKIDMKMLGKIGHALSDENSDLPAMGQDSLLKVFHPKKSESGECRLLQNDVVILDSPGVDLSPEFDSWIDKHCLDADVFVLVSNAESTLTQAEKNFFLRVAKKLSKPNVFILNNRWDASAAETENIEDVKKQHLTRFRQFLVDELEVCSEREVNDRIFFVSSREVLESRLKARGLVQKAYQAEGHGTRALEFQNFERHFEHCISRSAIHTKFEAHNRRAHEMIGKMRLNLNSVLTSAAEQRSKLQNNLNESTRTFNECRVNFTQFEKAYREQTEQLRAEVHLKVSADFFEEIARLDAIIDRFEQPFDGSSSGMTKYKEDLAIFVDKCLSSDLEARCTGGLMSRIWNLENDMFQYVTKILAEPYQNKLEEVWRYRAPFKFSICVDVPALVNDFHEDLEFRFTFGLHAIIRRIIAYRSGQPVTAINTNLLTPLSLKQQSEKNSVRDAEASAASEEQAMMTQMVLTSAAFLANGSLGVLVVGGIVYKAVGWRVIAVGGAAYAGLYAWERMRWNSGAKEQHLKEQFRSHLAARMQQVSTAHTHHCETQAIREMDQVFDGLKATVGGVHREMKNDLDVQKTQIDAVDSTIRTLGTIKGKAVFLLRNLEQFASSYLRSDSPPTP
modifications: [35S]methionine-labeled
